Reference: publication PMC9482650, “Quantitative fragmentomics allow affinity mapping of interactomes” (Nature Communications, 2022)

T1: TJP3_1, O95049
T1 sequence (O95049 6-103, limits assumed, looked up): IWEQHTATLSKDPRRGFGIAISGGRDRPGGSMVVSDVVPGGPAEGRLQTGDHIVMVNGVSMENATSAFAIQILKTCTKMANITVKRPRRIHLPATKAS

T2: MPDZ_11, O75970
T2 sequence (O75970 1720-1817, limits assumed, looked up): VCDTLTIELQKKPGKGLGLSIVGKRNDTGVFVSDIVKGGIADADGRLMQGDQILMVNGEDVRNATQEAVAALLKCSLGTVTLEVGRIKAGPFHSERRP

T3: PTPN4, P29074
T3 sequence (P29074 512-599, limits assumed, looked up): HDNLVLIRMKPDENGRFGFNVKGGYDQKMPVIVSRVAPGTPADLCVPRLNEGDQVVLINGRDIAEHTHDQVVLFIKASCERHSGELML

T4: SHROOM3, Q8TF72
T4 sequence (Q8TF72 20-120, limits assumed, looked up): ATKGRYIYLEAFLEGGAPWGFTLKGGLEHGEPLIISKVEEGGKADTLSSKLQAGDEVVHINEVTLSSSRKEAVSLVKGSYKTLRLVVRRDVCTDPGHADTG

T5: MPP5, Q8N3R9
T5 sequence (Q8N3R9 251-346, limits assumed, looked up): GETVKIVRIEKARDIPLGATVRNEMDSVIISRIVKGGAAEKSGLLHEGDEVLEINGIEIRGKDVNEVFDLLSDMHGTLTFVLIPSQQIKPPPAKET

T6: SYNPO2L, Q9H987
T6 sequence (Q9H987 1-98, limits assumed, looked up): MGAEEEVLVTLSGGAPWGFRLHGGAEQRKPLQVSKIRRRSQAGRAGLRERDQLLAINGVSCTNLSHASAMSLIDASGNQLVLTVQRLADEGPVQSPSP

T7: PARD6B, Q9BYG5
T7 sequence (Q9BYG5 152-260, limits assumed, looked up): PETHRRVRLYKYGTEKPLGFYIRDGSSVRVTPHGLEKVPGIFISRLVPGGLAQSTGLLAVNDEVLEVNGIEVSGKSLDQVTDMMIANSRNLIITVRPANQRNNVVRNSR

T8: PDZD7_2, Q9H5P4
T8 sequence (Q9H5P4 205-303, limits assumed, looked up): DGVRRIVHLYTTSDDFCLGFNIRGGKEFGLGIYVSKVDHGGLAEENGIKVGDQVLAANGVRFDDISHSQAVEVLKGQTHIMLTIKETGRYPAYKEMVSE

T9: PARD6G, Q9BYG4
T9 sequence (Q9BYG4 153-261, limits assumed, looked up): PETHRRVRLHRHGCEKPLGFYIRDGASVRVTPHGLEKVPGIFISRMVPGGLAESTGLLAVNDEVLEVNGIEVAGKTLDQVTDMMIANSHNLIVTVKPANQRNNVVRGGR

T10: MLLT4, P55196
T10 sequence (P55196 1002-1103, limits assumed, looked up): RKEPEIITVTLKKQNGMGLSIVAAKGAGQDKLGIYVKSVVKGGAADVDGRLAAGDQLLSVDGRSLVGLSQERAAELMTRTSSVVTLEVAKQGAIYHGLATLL

T11: PDZD2_5, O15018
T11 sequence (O15018 2617-2716, limits assumed, looked up): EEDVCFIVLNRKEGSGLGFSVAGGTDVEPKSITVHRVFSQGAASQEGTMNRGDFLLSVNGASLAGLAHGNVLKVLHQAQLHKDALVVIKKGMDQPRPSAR

T12: PDZD2_4, O15018
T12 sequence (O15018 723-823, limits assumed, looked up): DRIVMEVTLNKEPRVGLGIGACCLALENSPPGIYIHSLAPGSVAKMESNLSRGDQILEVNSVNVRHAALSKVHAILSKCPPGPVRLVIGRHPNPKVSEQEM

T13: MPDZ_7, O75970
T13 sequence (O75970 1146-1253, limits assumed, looked up): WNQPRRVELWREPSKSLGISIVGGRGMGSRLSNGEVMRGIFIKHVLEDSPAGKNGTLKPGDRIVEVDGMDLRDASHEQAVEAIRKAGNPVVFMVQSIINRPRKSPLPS


Assays:
Assay in all cases: holdup assay
Set-up in all cases: key: below the threshold = too weak to quantify, mostly under pKd 3.1 to 4
Settings in all cases: plain residues with an end cap or a label only (N-terminal biotin on a linker: ttds)
[1] = target: T1, TJP3_1, O95049
[2] = target: MAST3, O60307
MAST3, O60307, sequence (O60307 945-1048): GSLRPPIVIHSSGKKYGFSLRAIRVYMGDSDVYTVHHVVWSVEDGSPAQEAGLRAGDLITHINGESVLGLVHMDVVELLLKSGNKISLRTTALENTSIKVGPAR

[3] = target: SDCBP_1, O00560
SDCBP_1, O00560, sequence (O00560 111-198): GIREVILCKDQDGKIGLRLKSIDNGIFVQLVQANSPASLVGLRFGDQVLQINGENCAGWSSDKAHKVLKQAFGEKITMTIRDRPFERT

[4] = target: T2, MPDZ_11, O75970
[5] = target: PDLIM4, P50479
PDLIM4, P50479, sequence (P50479 1-83): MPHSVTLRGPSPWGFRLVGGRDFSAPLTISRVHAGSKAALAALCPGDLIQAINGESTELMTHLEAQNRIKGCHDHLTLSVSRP

[6] = target: T3, PTPN4, P29074
[7] = target: T4, SHROOM3, Q8TF72
[8] = target: T5, MPP5, Q8N3R9
[9] = target: MAGI3_4, Q5TCQ9
MAGI3_4, Q5TCQ9, sequence (Q5TCQ9 716-815): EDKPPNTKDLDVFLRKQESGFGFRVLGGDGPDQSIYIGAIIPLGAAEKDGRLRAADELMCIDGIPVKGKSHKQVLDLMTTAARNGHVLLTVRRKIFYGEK

[10] = target: T6, SYNPO2L, Q9H987
[11] = target: T7, PARD6B, Q9BYG5
[12] = target: Inadl_7, Q8NI35
Inadl_7, Q8NI35, sequence (Q8NI35 1219-1332): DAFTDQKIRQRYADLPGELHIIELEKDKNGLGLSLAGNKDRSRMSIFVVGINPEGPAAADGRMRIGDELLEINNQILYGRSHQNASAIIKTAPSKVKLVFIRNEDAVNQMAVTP

[13] = target: T8, PDZD7_2, Q9H5P4
[14] = target: Q8TEW0
[15] = target: Q9ULJ8
[16] = target: Q9UDY2
[17] = target: PREX1_1, Q8TCU6
PREX1_1, Q8TCU6, sequence (Q8TCU6 608-718): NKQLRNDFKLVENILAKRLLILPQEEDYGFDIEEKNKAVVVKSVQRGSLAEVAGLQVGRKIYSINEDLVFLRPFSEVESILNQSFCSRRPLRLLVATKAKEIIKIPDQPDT

[18] = target: T9, PARD6G, Q9BYG4
[19] = target: T10, MLLT4, P55196
[20] = target: O43166
[21] = target: Q96HC4
[22] = target: T11, PDZD2_5, O15018
[23] = target: NHERF2_1, Q15599
NHERF2_1, Q15599, sequence (Q15599 9-91): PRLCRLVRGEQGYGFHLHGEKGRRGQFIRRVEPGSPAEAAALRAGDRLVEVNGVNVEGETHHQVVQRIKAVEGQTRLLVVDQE

[24] = target: T12, PDZD2_4, O15018
[25] = target: T13, MPDZ_7, O75970

pKd [1]	pKd [2]	pKd [3]	pKd [4]	pKd [5]	pKd [6]	pKd [7]	pKd [8]	pKd [9]	pKd [10]	pKd [11]	pKd [12]	pKd [13]	pKd [14]	pKd [15]	pKd [16]	pKd [17]	pKd [18]	pKd [19]	pKd [20]	Binder	other results
below the threshold	4.29	below the threshold	below the threshold	below the threshold	4.97	below the threshold	below the threshold	below the threshold	below the threshold	below the threshold	below the threshold	4.54	below the threshold	below the threshold	below the threshold	below the threshold	below the threshold	below the threshold	below the threshold	STLTIFETAL [ABCC4, O15439]	pKd [21]: below the threshold; pKd [22]: below the threshold; pKd [23]: 4.83; pKd [24]: below the threshold; pKd [25]: 5.01
below the threshold	below the threshold	below the threshold	below the threshold	below the threshold	4.48	below the threshold	below the threshold	below the threshold	below the threshold	below the threshold	below the threshold	below the threshold	below the threshold	below the threshold	below the threshold	below the threshold	below the threshold	below the threshold	below the threshold	QSARYRDTEL [TJP2, Q9UDY2]	pKd [21]: below the threshold; pKd [22]: below the threshold; pKd [23]: below the threshold; pKd [24]: below the threshold; pKd [25]: below the threshold
